Laboratory results published in patent US20140005098A1.

How the values were obtained:
IGF-I = IGF-I (UniProt P05019); assay: competition binding with 125I-IGF-I tracer and unlabelled IGF-I as competitor, Scatchard analysis
IGF-II = IGF-II (UniProt P01344); assay: competition binding with 125I-IGF-I tracer and unlabelled IGF-II as competitor, Scatchard analysis
Sequence of IGF-II (P01344 25-91 limits assumed): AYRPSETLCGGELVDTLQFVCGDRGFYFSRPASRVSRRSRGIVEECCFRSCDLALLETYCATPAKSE

Sequence of IGF-I (P05019 49-118 limits assumed): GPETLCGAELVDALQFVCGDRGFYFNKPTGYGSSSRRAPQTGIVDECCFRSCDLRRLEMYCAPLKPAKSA

How did the Ka (IGF-I) turn out when “mini-IGFBP-3 (mutated recombinant IGFBP-3; H6-mini-IGFBP-3) (from UniProt P17936 28-121; P17936 207-291)” was run?
The Ka was 2.4e+10 M⁻¹.

What about the Ka (IGF-II) of the same substance?
The Ka was 3.14e+10 M⁻¹.
